One assay deals with FITC-sCT(22–32) (salmon). Nature of the assay: fluorescence polarisation.
Assay [1] concerns the target biotinylated sCT(1–32) [C1A/C7A] (salmon). Nature of the assay: BLI. In general terms: In BLI a coated tip is dipped into the sample, and binding shifts an interference pattern.
Assay [2] has the same target. Nature of the assay: BLI. This is another data set of the same source.
The target in assay [3] is FITC-AM(37–52) [S45W/Q50W]. Description: fluorescence polarisation.
The target in assay [4] is FITC-AM(37–52) [S45W/Q50W]. Description: fluorescence polarisation. The source holds these as a separate data set. In general terms: In fluorescence polarisation assays a small probe gives low polarisation when free and higher when bound to something large.
Assay [5] deals with Endo H-treated CTR.38–141 N130D (MBP-free CTR ECD) (human). Description: fluorescence polarisation.
Assay [6] deals with Endo H-treated CTR.38–141 WT (MBP-free CTR ECD) (human). Nature of the assay: fluorescence polarisation.
Assay [7] deals with Glycan-free CTR.38–141 WT (E. coli-produced, MBP-free CTR ECD) (human). Nature of the assay: fluorescence polarisation.

We go through eight substances from article PMC7225057.

Like-named read-outs stand apart in the source and are kept apart here.

The term Kd denotes a measure of binding affinity in units of concentration. A low value points to tighter binding. Usually pKD stands for −log10 of the KD, conventionally taken in molar units. A higher pKD goes with a low KD. Take “CTR.34–141 WT (MBP-free CTR ECD, glycosylated, no enzyme treatment) (domain or fragment)”: in the assay with FITC-sCT(22–32) (salmon), the Kd was determined as 380 nM and the negative-log KD (pKD) is 6.43.

On to “Endo H-treated CTR.38–141 N130D (MBP-free CTR ECD) (domain or fragment)”, for which the Kd in assay [1] came to 11.9 µM; with FITC-sCT(22–32) (salmon), 2000 nM; in assay [2], 12.4 µM. The substance further had a pKD in the assay with FITC-sCT(22–32) (salmon) of 5.7.

As usually defined, the kon is the rate constant with which the complex forms. High values mean fast association, low ones slow association. Turning to “Endo H-treated CTR.38–141 WT (MBP-free CTR ECD) (domain or fragment)”, in the assay with FITC-sCT(22–32) (salmon), the Kd is 500 nM and the pKD amounted to 6.3. Besides, in assay [2], the kon amounted to 178000 M⁻¹ s⁻¹.

For the substance “Glycan-free CTR.38–141 WT (E. coli-produced, MBP-free CTR ECD) (domain or fragment)”, the dissociation constant Kd in assay [1] was 10.8 µM; with FITC-sCT(22–32) (salmon), 2700 nM; in assay [2], 30.9 µM. The substance also returned a pKD with FITC-sCT(22–32) (salmon) of 5.57.

In assay [3], “RAMP1-CLR.29–144 N123D (tethered RAMP1-CLR ECD fusion) (from UniProt O60894 24-111; Q16602 29-144) (receptor)” gave a Kd of 740 nM and a pKD of 6.13.

In the case of “RAMP1-CLR.29–144 WT (tethered RAMP1-CLR ECD fusion, CGRP receptor ECD) (from UniProt O60894 24-111; Q16602 29-144)”, in assay [4], the Kd was 280 nM and the negative logarithm of the KD (pKD) stood at 6.56. Besides, in assay [3], the Kd amounted to 310 nM and the pKD was 6.51.

In assay [3], “RAMP1-CLR.29–144 WT, PNGase F-treated (deglycosylated) (from UniProt O60894 24-111; Q16602 29-144) (receptor)” had a Kd of 1400 nM and a pKD of 5.87.

The Ki is the dissociation constant of the complex between target and ligand, obtained from inhibition or displacement. Low readings indicate tighter binding, high ones weaker binding. As to “salmon calcitonin sCT(22–32), unlabeled (peptide)”, the Ki in assay [5] turned out to be 5.6 µM; in assay [6], 1600 nM; in assay [7], 11 µM. Further, the figures for the pKI in assay [5], in assay [6] and in assay [7] were 5.26, 5.81 and 4.97, respectively.
